Data taken from patent publication US10166225B2, “Method for treating osteoporosis” (Exelixis, Inc., priority 2011, dated 2019).

Tested on: human bone marrow-derived CD34+ osteoclast precursor cells
Experiment: Osteoclast differentiation assay (secreted TRACP 5b at day 7)
Assay type: cell-based
Conditions: reference inhibitor, 5 nM
Method: The study was performed in four parts. In the first part, human bone marrow-derived CD34+ osteoclast precursor cells were cultured on bovine bone slices for 7 days, after which the formed osteoclasts were quantitated by measuring tartrate-resistant acid phosphatase 5b activity (TRACP 5b) in the culture medium.
The objective of this study was to investigate the effects of Compound 1 selected by the Sponsor on differentiation and activity of human osteoclasts and mouse osteoblasts in vitro. The effects on osteoclasts were studied using a model where bone marrow-derived human osteoclast precursor cells are cultured on bovine bone slices for 7 days in conditions favouring osteoclast differentiation, and allowed to differentiate into bone-resorbing osteoclasts. After completion of osteoclast differentiation at day 7, the culture medium was removed and new culture medium favouring osteoclast activity was added into the wells. The mature osteoclasts were then cultured for an additional 3 days, allowing them to resorb bone. In the osteoclast differentiation assay, the test compounds and a reference inhibitor osteoprotegerin (OPG) were added into cultures at day 0. In the osteoclast activity assay, the test compounds and a reference inhibitor E64 were added into cultures at day 7. Seven concentrations in 8 replicates were tested in both assays. Tartrate-resistant acid phosphatase 5b activity (TRACP 5b) was measured from the culture medium collected at day 7 as an index of the number of osteoclasts formed in each well during the differentiation period. C-terminal cross-linked telopeptides of type I collagen (CTX) was measured from the culture medium collected at day 10 to quantitate bone resorption during days 7-10.
A human osteoclast culture system was developed for use in this study where CD34+ osteoclast precursor cells derived from human bone marrow (Poietics® Human Osteoclast Precursors, Lonza, Walkersville, USA) are cultured on bovine bone slices in the presence of appropriate growth factors, including M-CSF and RANK-ligand (Rissanen et al. 2009). The cells are first allowed to differentiate into mature bone-resorbing osteoclasts, and the formed osteoclasts are then allowed to resorb bone. The test and reference compounds are added into the cell cultures at the beginning of the differentiation and/or the resorption period, and their effects on the differentiation and/or resorbing activity of osteoclasts are determined.
Secreted TRACP 5b is determined from the culture medium after the differentiation period using a commercially available method (BoneTRAPÒ, IDS Ltd, Boldon, UK). Secreted TRACP 5b describes accurately the number of osteoclasts formed in each well during the differentiation period. CTX is determined from the culture medium after the resorption period using a commercially available method (CrossLapsÒ for cultures, IDS Ltd, Boldon, UK). CTX describes accurately the amount of bone collagen degradation products released into the culture medium in each well during the resorption period.
In this study, human bone marrow-derived CD34+ stem cells (10000 cells/well) were suspended in culture medium and allowed to attach to bovine bone slices in 96-well tissue culture plates. The culture medium (containing 10% FBS, OCP BulletKit® Lonza, Walkersville, USA) was supplemented with appropriate amounts of important growth factors favoring osteoclast differentiation and activity, including M-CSF (33 ng/ml, OCP BulletKit® Lonza, Walkersville, USA) and RANK-ligand (66 ng/ml, OCP BulletKit® Lonza, Walkersville, USA) in 200 μl of medium. The cells were incubated in a CO2 incubator in humidified atmosphere of 95% air and 5% carbon dioxide at 37° C. for 7 days. The test compounds and reference compound OPG were added at day 0. Supernatants collected at day 7 were stored at −70° C. until analysis of TRACP 5b. TRACP 5b was measured from the culture medium (20 μl/sample) using VICTOR2™ Multilabel Counter (PerkinElmer, Waltham, Mass., USA). […]

B1: OPG: Osteoprotegerin, reference inhibitor of osteoclast differentiation (protein, UniProt O00300 22-401, looked up)
Tumor necrosis factor …: ETFPPKYLHYDEETSHQLLCDKCPPGTYLKQHCTAKWKTVCAPCPDHYYTDSWHTSDECLYCSPVCKELQYVKQECNRTHNRVCECKEGRYLEIEFCLKHRSCPPGFGVVQAGTPERNTVCKRCPDGFFSNETSSKAPCRKHTNCSVFGLLLTQKGNATHDNICSGNSESTQKCGIDVTLCEEAFFRFAVPTKFTPNWLSVLVDNLPGTKVNAESVERIKRQHSSQEQTFQLLKLWKHQNKDQDIVKKIIQDIDLCENSVQRHIGHANLTFEQLRSLMESLPGKKVGAEDIEKTIKACKPSDQILKLLSLWRIKNGDQDTLKGLMHALKHSKTYHFPKTVTQSLKKTIRFLHSFTMYKLYQKLFLEMIGNQVQSVKISCL
effect on osteoclast differentiation: inhibited significantly
